Assay results published in patent US11473073B2, “Aminopeptidases for protein hydrolyzates” (DUPONT NUTRITION BIOSCIENCES APS, priority 2015, dated 2022).

Legend:
Format in all cases: biochemical
[1] = system: Na-caseinate; experiment: Degree of hydrolysis of pre-hydrolysed Na-caseinate; conditions: Casein, 50° C., 20 hr
Description: (§1) The degree of hydrolyses (DH) describes the relative amount of cleaved peptides bounds compared to an acid hydrolyses of the same amount of protein conducted e.g. in 6 M HCL at ˜120° C. for ˜24 h. The higher the DH can therefore be applied to assess the efficiency of amino acid liberation of a general PepN such as a PepN 1 or a PepN 2 type. The cell free culture broth was concentrated (10 kDa cut-off, Sartorius, Göttingen, Germany) and desalted applying a disposal desalting column (PD10, GE, Munchen, Germany) as described by the manufacturer. As substrates were pre-hydrolysed 10% (w/w) Na-caseinate (DMK, Germany), whey protein isolate (WPI; Arla, Viby, Denmark), soy protein isolate (SPI; SUPRO® 760, DuPont, Brabrand, Denmark) and gluten suspensions were applied. The pre-hydrolysis was conducted with 1% (w/wprotein) of FOODPRO® Alkaline Protease, 1% (w/wprotein) FOODPRO® PNL for the Na-Caseinate, the WPI as well as the SPI suspension. All pre-hydrolyses were conducted at 55° C. for 18 h followed by an inactivation step at 95° C. for 20 min. Each applied PepN 2 has been inactivated at 95 C for 15 min as a control of the elimination of any carryover of amino acids from the culture broth to the final hydrolyses as well as for the sufficient inactivation of the applied endopeptidases. The hydrolyses were conducted in a 96-well micro titer plate format and consisted of 150 μL of the pre-hydrolyzed protein suspension combined with 50 μL of a PepN 2 stock solution as indicated in Table 1 below. The hydrolyses were conducted at 50° C. for 20 hr, subsequently, the hydrolysis were stopped by the addition of 20 μL 2 M TCA (Trichloroacetic acid, Sigma-Aldrich, Schnelldorf, Germany). The efficiency of the amino acid liberation of the PepN 2 types from Neosartorya fischeri and Aspergillus clavatus can be seen in Table 1 (B) and (A). […] For the gluten hydrolyses, an increased DH was noticed in the protein range from 0.02-0.3 mg/mL PepN 2.

[2] = system: whey protein isolate (WPI); experiment: Degree of hydrolysis of pre-hydrolysed whey protein isolate; conditions: 50° C., 20 hr
Description: as §1

[3] = system: soy protein isolate (SPI); experiment: Degree of hydrolysis of pre-hydrolysed soy protein isolate; conditions: 50° C., 20 hr
Description: as §1

[4] = system: gluten; experiment: Degree of hydrolysis of pre-hydrolysed gluten; conditions: 50° C., 20 hr
Description: as §1

[5] = system: peptide WHWLQLKPGQPMY (SEQ ID NO:26); experiment: Hydrolysis of proline containing peptide, LC-MS; conditions: peptide 1 mg/mL, aminopeptidase 1 ug/mL, CPB-Buffer, 55° C.; FIG. 5-7
Description: The peptide […] (SEQ ID NO:26) was hydrolysed with TRI03 and TRI035. The peptide (1 mg/mL) was incubated with 1 ug/mL of the aminopeptidase in 20 mM CPB-Buffer (20 mM Citric acid, 20 mM Phosphate. 20 mM Boric acid) at 55° C. Aliquots (50 μL) were stopped with 50 rel 5% TFA at the indicated time points and subjected to LC-MS analysis.
Capillary LC-MS/MS analyses were performed using an Agilent 1100 LC system (Agilent Technologies) interfaced to a LTQ Orbitrap Classic hybrid mass spectrometer (Thermo Scientific, Bremen, Germany). Samples were loaded onto a 15 cm Phenomenix Jupiter 4μ Proteo 90A, C4 analytical column. Separation was performed at a flow rate of 16 μL/min using a 10 min gradient of 0-40% Solvent B H2O/CH3CN/HCOOH (50/950/0.65 v/v/v) into the IONMAX® ion source (Thermo Scientific, San Jose). The LTQ Orbitrap Classic instrument was operated in a data-dependent MS/MS mode. The peptide masses were measured by the Orbitrap (MS scans were obtained with a resolution of 60 000 at m/z 400), and up to 2 of the most intense peptide m/z were selected and subjected to fragmentation using CID in the linear ion trap (LTQ). Dynamic exclusion was enabled with a list size of 500 masses, duration of 40 s, and an exclusion mass width of ±10 ppm relative to masses on the list.
The RAW files were accessed with the program Skyline 2.6.0.7176 (MacLean, B., et al., “Skyline: an open source document editor for creating and analyzing targeted proteomics experiments”, Bioinformatics, 2010, 26(7): p. 966-8) which uses the MS1 intensities to build chromatograms (Schilling, B., et al., “Platform-independent and label-free quantitation of proteomic data using MS1 extracted ion chromatograms in skyline: application to protein acetylation and phosphorylation”, Mol Cell Proteomics, 2012. 11(5): p. 202-14). The precursor isotopic import filter was set to a count of three, (M, M+1, and M+2) at a resolution of 60,000 and the most intense charge state was used. Peptide sequences of the substrate as well as cleavage products were typed into Skyline and intensities were calculated in each sample. […]

[6] = Product inhibition of H-Ala-pNA hydrolysis by amino acid inhibitor mix; conditions: pH 9.0, 30° C.
Description: Sigma cat # D2650). […] […] and proline were dissolved in DMSO. All other amino acids were dissolved in buffer. […] The reaction was started by adding 20 μL substrate. Only one substrate concentration was used per plate.

[7] = inactivated enzyme at the highest conc.

B1: TRI031: fungal aminopeptidase type-2 (pepN_2), NCBI XP_001258675 from Neosartorya fischeri NRRL 181, expressed in Trichoderma reesei (protein)
chain: MQTFGAFLVSFLAASGLAAANGPGWDWKPPVHPKVLPQMIHLWDLMHGAQKLEDFAYAYPERNRVFGGPAHEDTVNYLYRELKKTGYYDVYKQPQVHQWTRADQALTVDGKSYVATTMTYSPSVNVTAPLAVVNNLGCVESDYPADLKGKIALVSRGECPFATKSVLSAKAGAAAALVYNNIEGSMAGTLGGPTSELGPYAPIAGISLADGQALIQMIQAGTVTANLWIDSKVENRTTYNVIAQTKGGDPNNVVALGGHTDSVEAGPGINDDGSGIISNLVVAKALTRFSVKNAVRFCFWTAEEFGLLGSSYYVNSLNATEKAKIRLYLNFDMIASPNYALMIYDGDGSAFNLTGPAGSAQIERLFEDYYKSIRKPFVPTEFNGRSDYEAFILNGIPAGGIFTGAEAIKTEEQAKLFGGQAGVALDANYHAKGDNMTNLNREAFLINSKATAFAVATYANSLDSIPSRNMSTVVKRSQLEQAKKSTPHTHTGGTGCYKDRVEQ
modifications: Synthetic peptide with leader sequence
notes: fungal aminopeptidase type-2 (pepN_2), NCBI XP_001258675 from Neosartorya fischeri NRRL 181, expressed in Trichoderma reesei
Q: With B1 as the molecule, how does the Degree of hydrolysis ([1]; PepN 2 stock 0.02 mg/mL) read?
A: 14%

Q: And the Degree of hydrolysis ([1]; PepN 2 stock 0.03 mg/mL)?
A: 15%

Q: And the Degree of hydrolysis ([1]; PepN 2 stock 0.04 mg/mL)?
A: 16%

Q: And the Degree of hydrolysis ([1]; PepN 2 stock 0.05 mg/mL)?
A: 20%

Q: And the Degree of hydrolysis ([1]; PepN 2 stock 0.1 mg/mL)?
A: 19%

Q: What about the Degree of hydrolysis ([1]; PepN 2 stock 0.15 mg/mL) of the same molecule?
A: 21%

Q: And the Degree of hydrolysis ([1]; PepN 2 stock 0.2 mg/mL)?
A: 23%

Q: And the Degree of hydrolysis ([1]; PepN 2 stock 0.25 mg/mL)?
A: 22%

Q: And the Degree of hydrolysis ([1]; PepN 2 stock 0.3 mg/mL)?
A: 24%

Q: And the Degree of hydrolysis ([1]; PepN 2 stock 0.35 mg/mL)?
A: 24%

Q: What about the Degree of hydrolysis [1, 7] of the same molecule?
A: 8%

Q: What about the Degree of hydrolysis ([2]; PepN 2 stock 0.02 mg/mL) of the same molecule?
A: 17%

Q: What about the Degree of hydrolysis ([2]; PepN 2 stock 0.03 mg/mL) of the same molecule?
A: 19%

Q: What about the Degree of hydrolysis ([2]; PepN 2 stock 0.04 mg/mL) of the same molecule?
A: 19%

Q: What about the Degree of hydrolysis ([2]; PepN 2 stock 0.05 mg/mL) of the same molecule?
A: 21%

Q: What about the Degree of hydrolysis ([2]; PepN 2 stock 0.1 mg/mL) of the same molecule?
A: 23%

Q: And the Degree of hydrolysis ([2]; PepN 2 stock 0.15 mg/mL)?
A: 28%

Q: What about the Degree of hydrolysis ([2]; PepN 2 stock 0.2 mg/mL) of the same molecule?
A: 24%

Q: And the Degree of hydrolysis ([2]; PepN 2 stock 0.25 mg/mL)?
A: 26%

Q: What about the Degree of hydrolysis ([2]; PepN 2 stock 0.3 mg/mL) of the same molecule?
A: 27%

Q: What about the Degree of hydrolysis ([2]; PepN 2 stock 0.35 mg/mL) of the same molecule?
A: 29%

Q: What about the Degree of hydrolysis [2, 7] of the same molecule?
A: 8%

Q: What about the Degree of hydrolysis ([3]; PepN 2 stock 0.02 mg/mL) of the same molecule?
A: 11%

Q: And the Degree of hydrolysis ([3]; PepN 2 stock 0.03 mg/mL)?
A: 13%

Q: What about the Degree of hydrolysis ([3]; PepN 2 stock 0.04 mg/mL) of the same molecule?
A: 14%

Q: What about the Degree of hydrolysis ([3]; PepN 2 stock 0.05 mg/mL) of the same molecule?
A: 15%

Q: And the Degree of hydrolysis ([3]; PepN 2 stock 0.1 mg/mL)?
A: 17%

Q: And the Degree of hydrolysis ([3]; PepN 2 stock 0.15 mg/mL)?
A: 18%

Q: And the Degree of hydrolysis ([3]; PepN 2 stock 0.2 mg/mL)?
A: 19%

Q: And the Degree of hydrolysis ([3]; PepN 2 stock 0.25 mg/mL)?
A: 19%

Q: And the Degree of hydrolysis ([3]; PepN 2 stock 0.3 mg/mL)?
A: 19%

Q: What about the Degree of hydrolysis ([3]; PepN 2 stock 0.35 mg/mL) of the same molecule?
A: 22%

Q: And the Degree of hydrolysis [3, 7]?
A: 6%

Q: And the Degree of hydrolysis ([4]; PepN 2 stock 0.02 mg/mL)?
A: 10%

Q: And the Degree of hydrolysis ([4]; PepN 2 stock 0.03 mg/mL)?
A: 13%

Q: What about the Degree of hydrolysis ([4]; PepN 2 stock 0.04 mg/mL) of the same molecule?
A: 15%

Q: What about the Degree of hydrolysis ([4]; PepN 2 stock 0.05 mg/mL) of the same molecule?
A: 14%

Q: And the Degree of hydrolysis ([4]; PepN 2 stock 0.1 mg/mL)?
A: 17%

Q: And the Degree of hydrolysis ([4]; PepN 2 stock 0.15 mg/mL)?
A: 18%

Q: And the Degree of hydrolysis ([4]; PepN 2 stock 0.2 mg/mL)?
A: 19%

Q: And the Degree of hydrolysis ([4]; PepN 2 stock 0.25 mg/mL)?
A: 19%

Q: And the Degree of hydrolysis ([4]; PepN 2 stock 0.3 mg/mL)?
A: 21%

Q: And the Degree of hydrolysis ([4]; PepN 2 stock 0.35 mg/mL)?
A: 20%

Q: And the Degree of hydrolysis [4, 7]?
A: 4%

Q: What about the “hydrolysis of WHWLQLKPGQPMY to KPGQPMY and further down to QPMY” value [5] of the same molecule?
A: can hydrolyze

Q: And the “product inhibition compared to TRI063 from A. oryzae” value [6]?
A: less inhibited by product
